According to the DeepSol protein solubility set:

experiment: soluble on expression in E. coli; label from the status in PepcDB or PDB records

Sequence	soluble on expression in E. coli
MREWKIIDSTLREGEQFEKANFSTQDKVEIAKALDEFGIEYIEVTTPVASPQSRKDAEVLASLGLKAKVVTHIQCRLDAAKVAVETGVQGIDLLFGTSKYLRAPHGRDIPRIIEEAKEVIAYIREAAPHVEVRFSAEDTFRSEEQDLLAVYEAVAPYVDRVGLADTVGVATPRQVYALVREVRRVVGPRVDIEFHGHNDTGCAIANAYEAIEAGATHVDTTILGIGERNGITPLGGFLARMYTLQPEYVRRKYKLEMLPELDRMVARMVGVEIPFNNYITGETAFSHKAGMHLKAIYINPEAYEPYPPEVFGVKRKLIIASRLTGRHAIKARAEELGLHYGEEELHRVTQHIKALADRGQLTLEELDRILREWITAHHHHHH	soluble
MKQYLELMQKVLDEGTQKNDRTGTGTLSIFGHQMRFNLQDGFPLVTTKRCHLRSIIHELLWFLQGDTNIAYLHENNVTIWDEWADENGDLGPVYGKQWRAWPTPDGRHIDQITTVLNQLKNDPDSRRIIVSAWNVGELDKMACAPSHAFFQFYVADGKLSCQLYQRSCDVFLGLPFNIASYALLVHMMAQQCDLEVGDFVWTGGDTHLYSNHMDQTHLQLSREPRPLPKLIIKRKPESIFDYRFEDFEIEGYDPHPGIKAPVAI	soluble
EGDPENGEKLQITIRRGKDGFGFTICCDSPVRVQAVDSGGPAERAGLQQLDTVLQLNERPVEHWKCVELAHEIRSCPSEIILLVWRV	soluble
MAHHHHHHMRFVFRRLLPASTAAVAAPPSLLSMRGAPSFVHPPAEEAIGKDVRATPANWVTAYVLPEVITEQEEKTLLDFSEPWFERLSYNDGHMDGLIHHYKEFYRSYAAITQAAETGSDAGLNMPHANLEVDLPLVSEALARAHDLAQTYLPCIPIDDRVHFLRLAGSGFIRAHVDESRNSTGIVAGLCLNAGRVMTLTHPAYPGERVELMLAPRCLYILIGRARYDWAHSVDWVGDDDEHIRRIQKSLAVEGTPIRFDGAETPYRRSDRTAIIFRGVSPMTLLVRRMRQRG	not soluble
MGSDKIHHHHHHMDNYLAEQILKNLPFTPTQSQDSAIRSLAKYLFDREPYSVFLLRGYAGTGKTQLIASVVQTILEQGADCELLAPTGRAAKVLTTYTRHQAYTIHRQIYQATAAGIEEGGAYRIRRSSGRSTVFIVDESSMIGNESVEPTPFGSGSLLNDLLAYVNETDGCRLILAGDMAQLPPVGSVVSPALDAGVMETSYGLRIHECTLTEVVRQQKESAILSLATSLRRLLSNGISEKIKLNIRDSGDVSAISGTELIEALDASFRTVGMDETIIVSYSNKRALAYNLGIRSQVLYYEEELIRGDRLVVTRNNYRYCDRRDKTDFVANGEIVEILRLGKRYELYGFRFADATISLVEQGREIEARLLLDGLTAETAGLTHAQRQKLYDAVAEDYNSMASIPARRKAIKEDAFFSALEVKYAYAITCHKAQGGQWKHVYVDMGMLSYLPHDEQLCRWLYTAVTRASERLFLVNTPKDMLP	not soluble
DTFIGWEPEVTHKKYFAMLDTISQVQGVPEPIIEAVAPLFFANNADQVHPELVASFKQSLESLTGERAVEVARIGRMVFGRRDVIEDAEKFALPTLIAVGREDKPRPVFESYLMHDCITGSELVEIPEAGHISSLEQPEFVNQMLLSFLNKVHA	not soluble
MSTSEDKPEIISRVVHQEGDVEIVDRSQKDKDEEKEEGKGGFLDKVKDFIHDIGEKLEGTIGFGKPTADVSAIHIPKINLERADIVVDVLVKNPNPVPIPLIDVNYLVESDGRKLVSGLIPDAGTLKAHGEETVKIPLTLIYDDIKSTYNDINPGMIIPYRIKVDLIVDVPVLGRLTLPLEKCGEIPIPKKPDVDIEKIKFQKFSLEETVAILHVRLQNMNDFDLGLNDLDCEVWLCDVSIGKAEIADSIKLDKNGSGLINVPMTFRPKDFGSALWDMIRGKGTGYTIKGNIDVDTPFGAMKLPIIKEGGETRLKKEDDDDDDEE	soluble
SNAMTLTALNAISPIDGRYVNKTRALSPYFSEFALTYYRLMVEIKWFESLAANDTIPEVPALDNKARKFLSDLISNFNESEAEKIKEFEKQTNHDVKAVEYYLQDKFQENEQLKSCVAFIHFACTSEDINNLAYALMIKQAIAQVIQPTIAEIMGSITLLGKQHADVAMLSRTHGQPATPTTMGKELVNFVARLKRPQQQLAEVLIPAKFNGAVGNYNAHVAAYPEVDWRKHCANFVTSLGLSFNAYTTQIEPHDGIAEVSQIMVRINNILLDYTQDIWSYISLGYFKQKTIAEEVGSSTMPHKVNPIDFENAEGNLGLSNALFIHFANKLTQSRMQRDLSDSTVLRNLGVAFSYSLIAYHSVAKGNDKLQINKSALQKDLSENWEVLAEAIQTVMRRYNEPNAYEQLKELTRGQMIDAENLKKFIKTLSIPEEAKAELMKLTPETYTGLATQLVKAFS	soluble
MGSDKIHHHHHHMEQLRAELSHLLGEKLSRIECVNEKADTALWALYDSQGNPMPLMARSFSTPGKARQLAWKTTMLARSGTVRMPTIYGVMTHEEHPGPDVLLLERMRGVSVEAPARTPERWEQLKDQIVEALLAWHRQDSRGCVGAVDNTQENFWPSWYRQHVEVLWTTLNQFNNTGLTMQDKRILFRTRECLPALFEGFNDNCVLIHGNFCLRSMLKDSRSDQLLAMVGPGLMLWAPREYELFRLMDNSLAEDLLWSYLQRAPVAESFIWRRWLYVLWDEVAQLVNTGRFSRRNFDLASKSLLPWLA	not soluble
AKIIFIEHNGTRHEVEAKPGLTVMEAARDNGVPGIDADCGGACACSTCHAYVDPAWVDKLPKALPTETDMIDFAYEPNPATSRLTCQIKVTSLLDGLVVHLPEKQI	soluble
MNILRNIILFGWMAIACTAFAQDRNADKVERPNTKKINFGIKAGFNSSMFMVSELKIKDVTIDEVQNNYKIGYFGAIFMRFNIKKHFIQPEASYNVSKGEITFDKLGSQHPAIEPDYASVQSVLHSIDFPILYGYNVVKKGPYGMSIFAGPKLRYLWGKQNEITFTNFDQKGIHEKLYPLNVSVVIGVGVNISRIFFDFRYEQGIGNISKSIVYDNINSDGSTGVSPIIFRRRDSALSFSFGFIL	not soluble
MSDPKPTRSQGDLAEMLEMLLDKGVVINADIAVSVGDTELLGIQLRAAVASFETAAQYGLEFPTGTDMKRVETAAGVSSDASDANSETQPETEPARETTDEHSAVSSPSSREE	not soluble
NLYFQGHMDNVDELRKIENKSSFVSADNMPEYVKGAFISMQDERFYNHHGFDLKGTTRALFSTISDRDVQGGSTITQQVVKNYFYDNDRSFTRKVKELFVAHRVEKQYNKNEILSFYLNNIYFGDNQYTLEGAANHYFGTTVNKNSTTMSHITVLQSAILASKVNAPSVYNINNMSENFTQRVSTNLEKMKQQNYINETQYQQAMSQLN	soluble
MKVAFVIRKDCKRCATIAKSIIELIPPDWEKIYDTEAAKFLGGVGKDITEISADIIIAIGGDGTVLRILQNAKGPVLGINMGGLGFLTEIEIDEVGSSTYKLIRGEYKINEAMKLKVYINGRRLEDCTNEAVVHTDRIARIRQFKIYVDGHFLTTIKSDGVIVATPTGSSSYSSSAGGPLLLPTVRGMVISYLAPYSSRIKPVVVPSESTVEIKIAGNDQDSLLILDGQKEYKIKSGDTVSISMSEEKARFVSFRESIYDRLRDKVIKHVVN	soluble
